B1: Pistol ribozyme (parent)
chain: GGGUCGUUGUUCCAUAAUCGCGUGGAUAUGGCACGCAAGUUUCUACCGGGCACCGUAAAUGUCCGACUGGAGCCGUUCGGGCGGCUAUAAACAGACCUCAGGCCCGAAGCGUGGCGGCACCUGCCGCCGGUGGUAAAAAAGAUCGGAAGAGCACACGUCU

Variants of: B1
Test: aptazyme ON/OFF ratio, guanine; higher = stronger switching; co-transcriptional cleavage with and without guanine

Row | Variant | aptazyme ON/OFF ratio
1 | U7A G9C U10A U11A C13U | 1.1
2 | U7A G9C U10A U11A C13G | 1.03
3 | U7A G9C U10A U11A C13A | 1.11
4 | U7A G9C U10G U11A C13U | 1.05
5 | U7A G9C U10G U11A C13G | 1.06
6 | U7A G9C U10G U11A C13A | 1.02
7 | U7A G9A U10C U11G C12U | 1.29
8 | U7A G9A U10C U11G C12G | 1.3
9 | U7A G9A U10C U11G C12A | 1.04
10 | U7A G9A U10C U11G C12U C13A | 1.15
11 | U7A G9A U10C U11G C12U C13U | 1.3
12 | U7A G9A U10C U11G C12U C13G | 1.21
13 | U7A G9C U10C U11A C12G C13A | 1.16
14 | U7A G9C U10C U11A C12G C13U | 1.25
15 | U7A G9C U10C U11A C12G C13G | 1.16
16 | U7A G9A U10C U11G C12A C13A | 1.18
17 | U7A G9A U10C U11G C12A C13G | 1.24
18 | U7A G9A U10C U11G C12A C13U | 1.1
19 | U7A G9A U11A C13U | 1.06
20 | U7A G9A U11A C13A | 1.17
21 | U7A G9A U11A C13G | 1.11

Row | Variant | aptazyme ON/OFF ratio
22 | U7A G9A U11G C12U | 2.19
23 | U7A G9A U11G C12G | 1.29
24 | U7A G9A U11G C12A | 1.18
25 | U7A G9C U10C U11G C13G | 1.08
26 | U7A G9C U10C U11G C13A | 1.06
27 | U7A G9C U10C U11G C13U | 1.08
28 | U7A G9C U10C C12G C13G | 1.07
29 | U7A G9C U10C C12G C13A | 1.03
30 | U7A G9C U10C C12G C13U | 1.05
31 | U7A G9A U11G C12U C13A | 1.34
32 | U7A G9A U11G C12U C13U | 1.27
33 | U7A G9A U11G C12U C13G | 1.2
34 | U7A G9C U10G U11G C12G C13A | 1.14
35 | U7A G9C U10G U11G C12G C13G | 1.13
36 | U7A G9C U10G U11G C12G C13U | 1.16
37 | U7A G9A U10G U11C C12U C13A | 1.2
38 | U7A G9A U10G U11C C12U C13G | 1.18
39 | U7A G9A U10G U11C C12U C13U | 1.21
40 | U7A G9C C12U | 1.1
41 | U7A G9C C12G | 1.08
42 | U7A G9C C12A | 1.06

Row | Variant | aptazyme ON/OFF ratio
43 | U7A G9A U10G U11G C12A C13A | 1.2
44 | U7A G9A U10G U11G C12A C13U | 1.33
45 | U7A G9A U10G U11G C12A C13G | 1.29
46 | U7A G9A U11C C12A C13A | 1.17
47 | U7A G9A U11C C12A C13U | 1.16
48 | U7A G9A U11C C12A C13G | 1.14
49 | U7A G9A U11A C12A C13U | 1.44
50 | U7A G9A U11A C12A C13G | 1.16
51 | U7A G9A U11A C12A C13A | 1.22
52 | U7A G9C U10C U11A C12G | 1.1
53 | U7A G9C U10C U11A C12U | 1.04
54 | U7A G9C U10C U11A C12A | 1.06
55 | U7A G9A U10G U11A C12A | 1.17
56 | U7A G9A U10G U11A C12G | 1.12
57 | U7A G9A U10G U11A C12U | 1.05
58 | U7A G9C U10A C13U | 1.18
59 | U7A G9C U10A C13A | 1.16
60 | U7A G9C U10A C13G | 1.08
61 | U7A G9A U10G C12A C13G | 1.15
62 | U7A G9A U10G C12A C13U | 1.34
63 | U7A G9A U10G C12A C13A | 1.17

Row | Variant | aptazyme ON/OFF ratio
64 | U7A G9C U10G U11C C13G | 1.05
65 | U7A G9C U10G U11C C13U | 1.03
66 | U7A G9C U10G U11C C13A | 1.06
67 | U7A G9A U11C C12G | 1.18
68 | U7A G9A U11C C12U | 1.17
69 | U7A G9A U11C C12A | 1.18
70 | U7A G9A U10C U11G C12G C13A | 1.17
71 | U7A G9A U10C U11G C12G C13U | 1.14
72 | U7A G9A U10C U11G C12G C13G | 1.27
73 | U7A G9C U10G C12A C13U | 1.09
74 | U7A G9C U10G C12A C13A | 1.08
75 | U7A G9C U10G C12A C13G | 1.09
76 | U7A G9C U10A U11G C12A C13A | 1.11
77 | U7A G9C U10A U11G C12A C13U | 1.05
78 | U7A G9C U10A U11G C12A C13G | 1.07
79 | U7A G9C U10A U11G C12G C13G | 1.12
80 | U7A G9C U10A U11G C12G C13U | 1.18
81 | U7A G9C U10A U11G C12G C13A | 1.06
82 | U7A G9A U10G C12U C13U | 1.32
83 | U7A G9A U10G C12U C13G | 1.14
84 | U7A G9A U10G C12U C13A | 1.06

Source: the RNAGym collection of RNA variant scans (doi:10.1021/acssynbio.7b00057)
